# According to patent US20220298218A1 (ANTAG THERAPEUTICS, published 2022):
# Where two headings read alike, the source gives them in different places. *1 amine or outer side, *2 acyl side, *3 side chain or, on linkers, in order; H or OH if unused. Where no end group is shown, it is not given here. Side-chain parts run from the residue outwards. The star is where a group is joined. C18 diacid = O=C(O)CCCCCCCCCCCCCCCCC(=O)*; C16 diacid = O=C(O)CCCCCCCCCCCCCCC(=O)*; γGlu = O=C(O)[C@H](CCC(=O)[*:2])N[*:1]; AEEA = NCCOCCOCC(=O)O
# T1: human GIP receptor (human, UniProt P48546 22-466)
# T1 sequence (looked up): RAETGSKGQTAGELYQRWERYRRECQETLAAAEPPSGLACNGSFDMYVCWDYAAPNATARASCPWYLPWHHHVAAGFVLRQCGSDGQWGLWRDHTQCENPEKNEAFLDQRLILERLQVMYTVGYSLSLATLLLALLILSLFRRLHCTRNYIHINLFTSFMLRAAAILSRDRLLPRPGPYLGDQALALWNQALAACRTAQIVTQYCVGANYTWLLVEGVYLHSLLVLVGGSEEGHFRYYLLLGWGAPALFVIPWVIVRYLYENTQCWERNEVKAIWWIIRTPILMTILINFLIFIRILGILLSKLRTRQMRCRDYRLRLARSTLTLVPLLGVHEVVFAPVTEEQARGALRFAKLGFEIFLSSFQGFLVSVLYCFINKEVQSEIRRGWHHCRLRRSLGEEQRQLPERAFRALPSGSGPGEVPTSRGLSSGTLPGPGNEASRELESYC
# B1: AT475 (peptide)
# peptide: FISDYSIAMDKIK(C16 diacid)QQDFVNWLLAQKGPSSGAPPPS-OH
# modifications: N-terminus assumed
# SMILES: CC[C@H](C)[C@H](NC(=O)[C@H](CO)NC(=O)[C@H](Cc1ccc(O)cc1)NC(=O)[C@H](CC(=O)O)NC(=O)[C@H](CO)NC(=O)[C@@H](NC(=O)[C@@H](N)Cc1ccccc1)[C@@H](C)CC)C(=O)N[C@@H](C)C(=O)N[C@@H](CCSC)C(=O)N[C@@H](CC(=O)O)C(=O)N[C@@H](CCCCN)C(=O)N[C@H](C(=O)N[C@@H](CCCCNC(=O)CCCCCCCCCCCCCCC(=O)O)C(=O)N[C@@H](CCC(N)=O)C(=O)N[C@@H](CCC(N)=O)C(=O)N[C@@H](CC(=O)O)C(=O)N[C@@H](Cc1ccccc1)C(=O)N[C@H](C(=O)N[C@@H](CC(N)=O)C(=O)N[C@@H](Cc1c[nH]c2ccccc12)C(=O)N[C@@H](CC(C)C)C(=O)N[C@@H](CC(C)C)C(=O)N[C@@H](C)C(=O)N[C@@H](CCC(N)=O)C(=O)N[C@@H](CCCCN)C(=O)NCC(=O)N1CCC[C@H]1C(=O)N[C@@H](CO)C(=O)N[C@@H](CO)C(=O)NCC(=O)N[C@@H](C)C(=O)N1CCC[C@H]1C(=O)N1CCC[C@H]1C(=O)N1CCC[C@H]1C(=O)N[C@@H](CO)C(=O)O)C(C)C)[C@@H](C)CC
# B2: AT364 (peptide)
# peptide: EGTFISDYSIAMDKIK(C16 diacid)QQDFVNWLLAQKGPSSGAPPPS-OH
# modifications: N-terminus assumed
# SMILES: CC[C@H](C)[C@H](NC(=O)[C@H](CO)NC(=O)[C@H](Cc1ccc(O)cc1)NC(=O)[C@H](CC(=O)O)NC(=O)[C@H](CO)NC(=O)[C@@H](NC(=O)[C@H](Cc1ccccc1)NC(=O)[C@@H](NC(=O)CNC(=O)[C@@H](N)CCC(=O)O)[C@@H](C)O)[C@@H](C)CC)C(=O)N[C@@H](C)C(=O)N[C@@H](CCSC)C(=O)N[C@@H](CC(=O)O)C(=O)N[C@@H](CCCCN)C(=O)N[C@H](C(=O)N[C@@H](CCCCNC(=O)CCCCCCCCCCCCCCC(=O)O)C(=O)N[C@@H](CCC(N)=O)C(=O)N[C@@H](CCC(N)=O)C(=O)N[C@@H](CC(=O)O)C(=O)N[C@@H](Cc1ccccc1)C(=O)N[C@H](C(=O)N[C@@H](CC(N)=O)C(=O)N[C@@H](Cc1c[nH]c2ccccc12)C(=O)N[C@@H](CC(C)C)C(=O)N[C@@H](CC(C)C)C(=O)N[C@@H](C)C(=O)N[C@@H](CCC(N)=O)C(=O)N[C@@H](CCCCN)C(=O)NCC(=O)N1CCC[C@H]1C(=O)N[C@@H](CO)C(=O)N[C@@H](CO)C(=O)NCC(=O)N[C@@H](C)C(=O)N1CCC[C@H]1C(=O)N1CCC[C@H]1C(=O)N1CCC[C@H]1C(=O)N[C@@H](CO)C(=O)O)C(C)C)[C@@H](C)CC
# B3: AT366 (peptide)
# peptide: TFISDYKIAMDKIHQQDFVNWLLAQKGKKNDW
# HELM: PEPTIDE1{T.F.I.S.D.Y.K.I.A.M.D.K.I.H.Q.Q.D.F.V.N.W.L.L.A.Q.K.G.K.K.N.D.W}|PEPTIDE2{[O=C(O)CCCCCCCCCCCCCCC(=O)[*:2]].[gGlu]}$PEPTIDE1,PEPTIDE2,7:R3-2:R2$$$V2.0; N-terminus assumed
# SMILES: CC[C@H](C)[C@H](NC(=O)[C@H](CCCCNC(=O)CC[C@H](NC(=O)CCCCCCCCCCCCCCC(=O)O)C(=O)O)NC(=O)[C@H](Cc1ccc(O)cc1)NC(=O)[C@H](CC(=O)O)NC(=O)[C@H](CO)NC(=O)[C@@H](NC(=O)[C@H](Cc1ccccc1)NC(=O)[C@@H](N)[C@@H](C)O)[C@@H](C)CC)C(=O)N[C@@H](C)C(=O)N[C@@H](CCSC)C(=O)N[C@@H](CC(=O)O)C(=O)N[C@@H](CCCCN)C(=O)N[C@H](C(=O)N[C@@H](Cc1c[nH]cn1)C(=O)N[C@@H](CCC(N)=O)C(=O)N[C@@H](CCC(N)=O)C(=O)N[C@@H](CC(=O)O)C(=O)N[C@@H](Cc1ccccc1)C(=O)N[C@H](C(=O)N[C@@H](CC(N)=O)C(=O)N[C@@H](Cc1c[nH]c2ccccc12)C(=O)N[C@@H](CC(C)C)C(=O)N[C@@H](CC(C)C)C(=O)N[C@@H](C)C(=O)N[C@@H](CCC(N)=O)C(=O)N[C@@H](CCCCN)C(=O)NCC(=O)N[C@@H](CCCCN)C(=O)N[C@@H](CCCCN)C(=O)N[C@@H](CC(N)=O)C(=O)N[C@@H](CC(=O)O)C(=O)N[C@@H](Cc1c[nH]c2ccccc12)C(=O)O)C(C)C)[C@@H](C)CC
# B4: AT423 (peptide)
# peptide: SGTFISDYSIAMDRIK([AEEA-AEEA-γGlu-C16 diacid])QQDFVNWLLAQRGRRNDW-OH
# modifications: N-terminus assumed
# SMILES: CC[C@H](C)[C@H](NC(=O)[C@H](CO)NC(=O)[C@H](Cc1ccc(O)cc1)NC(=O)[C@H](CC(=O)O)NC(=O)[C@H](CO)NC(=O)[C@@H](NC(=O)[C@H](Cc1ccccc1)NC(=O)[C@@H](NC(=O)CNC(=O)[C@@H](N)CO)[C@@H](C)O)[C@@H](C)CC)C(=O)N[C@@H](C)C(=O)N[C@@H](CCSC)C(=O)N[C@@H](CC(=O)O)C(=O)N[C@@H](CCCNC(=N)N)C(=O)N[C@H](C(=O)N[C@@H](CCCCNC(=O)COCCOCCNC(=O)COCCOCCNC(=O)CC[C@H](NC(=O)CCCCCCCCCCCCCCC(=O)O)C(=O)O)C(=O)N[C@@H](CCC(N)=O)C(=O)N[C@@H](CCC(N)=O)C(=O)N[C@@H](CC(=O)O)C(=O)N[C@@H](Cc1ccccc1)C(=O)N[C@H](C(=O)N[C@@H](CC(N)=O)C(=O)N[C@@H](Cc1c[nH]c2ccccc12)C(=O)N[C@@H](CC(C)C)C(=O)N[C@@H](CC(C)C)C(=O)N[C@@H](C)C(=O)N[C@@H](CCC(N)=O)C(=O)N[C@@H](CCCNC(=N)N)C(=O)NCC(=O)N[C@@H](CCCNC(=N)N)C(=O)N[C@@H](CCCNC(=N)N)C(=O)N[C@@H](CC(N)=O)C(=O)N[C@@H](CC(=O)O)C(=O)N[C@@H](Cc1c[nH]c2ccccc12)C(=O)O)C(C)C)[C@@H](C)CC
# B5: AT422 (peptide)
# peptide: SGTFISDYSIAMDKIK([AEEA-AEEA-AEEA-γGlu-C18 diacid])QQDFVNWLLAQKGKKNDW-OH
# modifications: N-terminus assumed
# SMILES: CC[C@H](C)[C@H](NC(=O)[C@H](CO)NC(=O)[C@H](Cc1ccc(O)cc1)NC(=O)[C@H](CC(=O)O)NC(=O)[C@H](CO)NC(=O)[C@@H](NC(=O)[C@H](Cc1ccccc1)NC(=O)[C@@H](NC(=O)CNC(=O)[C@@H](N)CO)[C@@H](C)O)[C@@H](C)CC)C(=O)N[C@@H](C)C(=O)N[C@@H](CCSC)C(=O)N[C@@H](CC(=O)O)C(=O)N[C@@H](CCCCN)C(=O)N[C@H](C(=O)N[C@@H](CCCCNC(=O)COCCOCCNC(=O)COCCOCCNC(=O)COCCOCCNC(=O)CC[C@H](NC(=O)CCCCCCCCCCCCCCCCC(=O)O)C(=O)O)C(=O)N[C@@H](CCC(N)=O)C(=O)N[C@@H](CCC(N)=O)C(=O)N[C@@H](CC(=O)O)C(=O)N[C@@H](Cc1ccccc1)C(=O)N[C@H](C(=O)N[C@@H](CC(N)=O)C(=O)N[C@@H](Cc1c[nH]c2ccccc12)C(=O)N[C@@H](CC(C)C)C(=O)N[C@@H](CC(C)C)C(=O)N[C@@H](C)C(=O)N[C@@H](CCC(N)=O)C(=O)N[C@@H](CCCCN)C(=O)NCC(=O)N[C@@H](CCCCN)C(=O)N[C@@H](CCCCN)C(=O)N[C@@H](CC(N)=O)C(=O)N[C@@H](CC(=O)O)C(=O)N[C@@H](Cc1c[nH]c2ccccc12)C(=O)O)C(C)C)[C@@H](C)CC
# B6: AT365 (peptide)
# peptide: TFISDYKIAMDKIHQQDFVNWLLAQKGKK
# HELM: PEPTIDE1{T.F.I.S.D.Y.K.I.A.M.D.K.I.H.Q.Q.D.F.V.N.W.L.L.A.Q.K.G.K.K}|PEPTIDE2{[O=C(O)CCCCCCCCCCCCCCC(=O)[*:2]].[gGlu]}$PEPTIDE1,PEPTIDE2,7:R3-2:R2$$$V2.0; N-terminus assumed
# SMILES: CC[C@H](C)[C@H](NC(=O)[C@H](CCCCNC(=O)CC[C@H](NC(=O)CCCCCCCCCCCCCCC(=O)O)C(=O)O)NC(=O)[C@H](Cc1ccc(O)cc1)NC(=O)[C@H](CC(=O)O)NC(=O)[C@H](CO)NC(=O)[C@@H](NC(=O)[C@H](Cc1ccccc1)NC(=O)[C@@H](N)[C@@H](C)O)[C@@H](C)CC)C(=O)N[C@@H](C)C(=O)N[C@@H](CCSC)C(=O)N[C@@H](CC(=O)O)C(=O)N[C@@H](CCCCN)C(=O)N[C@H](C(=O)N[C@@H](Cc1c[nH]cn1)C(=O)N[C@@H](CCC(N)=O)C(=O)N[C@@H](CCC(N)=O)C(=O)N[C@@H](CC(=O)O)C(=O)N[C@@H](Cc1ccccc1)C(=O)N[C@H](C(=O)N[C@@H](CC(N)=O)C(=O)N[C@@H](Cc1c[nH]c2ccccc12)C(=O)N[C@@H](CC(C)C)C(=O)N[C@@H](CC(C)C)C(=O)N[C@@H](C)C(=O)N[C@@H](CCC(N)=O)C(=O)N[C@@H](CCCCN)C(=O)NCC(=O)N[C@@H](CCCCN)C(=O)N[C@@H](CCCCN)C(=O)O)C(C)C)[C@@H](C)CC
# Experiments:
# [1] = molecular target: T1, human GIP receptor; assay: cell-based or functional assay
# [2] = molecular target: T1, human GIP receptor; assay: cell-based or functional assay; remark: listed apart in the source
Binder,cAMP antagonism [1] [nM],cAMP antagonism % inhib [1] [%],cAMP antagonism log [1] [log M],cAMP agonism % Emax [2] [%],cAMP antagonism [2] [nM],cAMP antagonism % inhib [2] [%],cAMP antagonism pIC50 [2],cAMP agonism Emax [1]
B1,4,100,-8.4,0,7.9,96,8.1,
B2,1,100,-8.9,0,13.8,87,7.9,
B3,3,100,-8.5,0,17.8,100,7.8,
B4,6,95,-8.2,0,79.4,71,7.1,
B5,3,90,-8.5,0,3.69,94,8.4,6
B6,6,100,-8.2,0,13.6,100,7.9,
